From article PMC6962361
pKd: −log10 of the molar value.

Target: Fpr C151Stop (Fowlpox virus) (UniProt A0A385H9X4)
Assay: fluorescence polarization
Conditions: FP: 25 mM Tris-HCl pH 7.4, 100 mM NaCl, 5 mM EDTA, 1% glycerol, 10 nM DNA, 37 C 20 min, protein as dimer; NMR: 25 mM L-Arg, 25 mM L-Glu, 303 K

CGGAGGCCTAGCGTCCGGAATTCTCGTTTCGAGAATTCCGGATTAGGGATCCGCG / CGCGGATCCCTAAGCTCCATCGATCGTTTCGATCGATGGAGCCGCTAGGCCTCCG [F13/13HJ (FHJ13/13)]
pKd: 6.78
